Results published in PMC5506036, “SmMYB36, a Novel R2R3-MYB Transcription Factor, Enhances Tanshinone Accumulation and Decreases Phenolic Acid Content in Salvia miltiorrhiza Hairy Roots”.

T1: SmMYB36 (Salvia miltiorrhiza, UniProt A0A059PRJ2 1-160)
T1 sequence: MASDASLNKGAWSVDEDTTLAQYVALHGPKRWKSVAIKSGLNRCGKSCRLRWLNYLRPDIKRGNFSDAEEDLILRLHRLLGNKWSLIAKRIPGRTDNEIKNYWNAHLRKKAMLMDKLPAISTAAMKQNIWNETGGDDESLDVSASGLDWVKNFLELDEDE

B1: C4H1-MBS1 (dsDNA)
DNA 1: TCTTTAAAACTCCAACTGATATGATGTTCG
DNA 2: CGAACATCATATCAGTTGGAGTTTTAAAGA
B2: C4H1-MBS3 (dsDNA)
DNA 1: GTTTAAAAGACATAACTGAGTTATCGAACA
DNA 2: TGTTCGATAACTCAGTTATGTCTTTTAAAC
B3: GGPPS1-MBS2 (dsDNA)
DNA 1: TTAAAATCGTTACGGTCATACCACGGAAAC
DNA 2: GTTTCCGTGGTATGACCGTAACGATTTTAA
B4: GGPPS1-MRE (dsDNA)
DNA 1: TTTTTCGATAGTAACCTAATTTTCTGTAGTG
DNA 2: CACTACAGAAAATTAGGTTACTATCGAAAAA
B5: IPPI-MBS1 (dsDNA)
DNA 1: CCGCCGCCGCCACAACTGTAATGGTGCTTT
DNA 2: AAAGCACCATTACAGTTGTGGCGGCGGCGG
B6: HMGS1-MBS3 (dsDNA)
DNA 1: GTGTGTGCTGTTTAACTGATCCGCTATTTC
DNA 2: GAAATAGCGGATCAGTTAAACAGCACACAC
B7: MBS1 core (dsDNA)
DNA 1: CAACTG
DNA 2: CAGTTG
B8: MBSI-1 core (dsDNA)
DNA 1: AAAAAACCGTTA
DNA 2: TAACGGTTTTTT
B9: MBSI-2 core (dsDNA)
DNA 1: AAAAAACGGTTA
DNA 2: TAACCGTTTTTT
B10: MBSII core (dsDNA)
DNA 1: AAAAGTTAGTTA
DNA 2: TAACTAACTTTT
B11: 4CL2-MRE (dsDNA)
DNA 1: TTTGTAGAGTTGAACCTAAAGATGATGGGTG
DNA 2: CACCCATCATCTTTAGGTTCAACTCTACAAA
B12: HPPR-MRE-1 (dsDNA)
DNA 1: TTTTGTGGGACAAACCTAAAAAGAAACTGAA
DNA 2: TTCAGTTTCTTTTTAGGTTTGTCCCACAAAA
B13: HPPR-MRE-2 (dsDNA)
DNA 1: AATGATTGATTTAACCTAATCATTGTGAAACC
DNA 2: GGTTTCACAATGATTAGGTTAAATCAATCATT
B14: DXR-MRE (dsDNA)
DNA 1: CCCCTTTTACAAAACCTAATTTCCCCCCAT
DNA 2: ATGGGGGGAAATTAGGTTTTGTAAAAGGGG
B15: MCT-MBS2-1 (dsDNA)
DNA 1: AGGAAACCCTCACGGTCACCTTAACATTCA
DNA 2: TGAATGTTAAGGTGACCGTGAGGGTTTCCT
B16: MCT-MBS2-2 (dsDNA)
DNA 1: AAAACAGGCATCCGGTCAGTAAGTCCGCAT
DNA 2: ATGCGGACTTACTGACCGGATGCCTGTTTT
B17: MCT-MBS3-1 (dsDNA)
DNA 1: TATCATCTTCGGTAACTGATACTCAAGGAT
DNA 2: ATCCTTGAGTATCAGTTACCGAAGATGATA
B18: MCT-MBS3-2 (dsDNA)
DNA 1: AACTAGATGAATTAACTGGTAGCAATTACC
DNA 2: GGTAATTGCTACCAGTTAATTCATCTAGTT

molecular target: T1, SmMYB36; test: EMSA; Invitrogen EMSA kit, probe:protein mass ratio 1:15, 10 µL; protein eluted in 50 mM NaH2PO4, 300 mM NaCl, 250 mM imidazole pH 8.0; binding buffer and temperature not given; conditions: protein: recombinant; tags: His (pET32a fusion); blunt

Binding result, binds:
B1, B2, B3, B4, B5, B6, B7, B8, B9, B10, B11, B12, B13, B14, B15, B16, B17, B18
